The supplement of paper PMC10567573

B1: NET1 (parent)
chain: IKRTIRVLDVNNQSFREQEEPSNK

Variants of: B1
Experiment: protein stability index of a GFP-peptide fusion (GPS, HEK-293T) (PSI 1-6); higher = more stable
Conditions: c terminus: a fixed tail appended
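Further: lentivirally expressed fusions sorted by FACS into six bins by GFP to DsRed ratio, PSI derived from sequencing read proportions per bin multiplied by bin number.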

Variant	protein stability index
IKRTIRNLDVNNQSFREQEEPSNK	4.5
IKRTIRALDVNNQSFREQEEPSNK	3.3
IKRTIRWLDVNNQSFREQEEPSNK	2.41
IKRTIRQLDVNNQSFREQEEPSNK	5.07
IKRTIRMLDVNNQSFREQEEPSNK	3.27
IKRTIRLLDVNNQSFREQEEPSNK	3.46
IKRTIRFLDVNNQSFREQEEPSNK	3.35
IKRTIRSLDVNNQSFREQEEPSNK	4.28
IKRTIRHLDVNNQSFREQEEPSNK	4.25
IKRTIRPLDVNNQSFREQEEPSNK	4.22
IKRTIRGLDVNNQSFREQEEPSNK	3.92
IKRTIRRLDVNNQSFREQEEPSNK	3.71
IKRTIRELDVNNQSFREQEEPSNK	3.74
IKRTIRKLDVNNQSFREQEEPSNK	4.37
IKRTIRILDVNNQSFREQEEPSNK	4.02
IKRTIRYLDVNNQSFREQEEPSNK	3.04
IKRTIRCLDVNNQSFREQEEPSNK	3.62
IKRTIRDLDVNNQSFREQEEPSNK	4.53
IKRTIRTLDVNNQSFREQEEPSNK	4.21
IKRTIRVLDMNNQSFREQEEPSNK	4
IKRTIRVLDQNNQSFREQEEPSNK	4.03
IKRTIRVLDSNNQSFREQEEPSNK	3.85
IKRTIRVLDFNNQSFREQEEPSNK	3.19
IKRTIRVLDINNQSFREQEEPSNK	3.87

Variant	protein stability index
IKRTIRVLDANNQSFREQEEPSNK	3.38
IKRTIRVLDENNQSFREQEEPSNK	4.79
IKRTIRVLDGNNQSFREQEEPSNK	4.22
IKRTIRVLDHNNQSFREQEEPSNK	4.23
IKRTIRVLDRNNQSFREQEEPSNK	4.04
IKRTIRVLDNNNQSFREQEEPSNK	4.46
IKRTIRVLDCNNQSFREQEEPSNK	3.82
IKRTIRVLDYNNQSFREQEEPSNK	4.06
IKRTIRVLDLNNQSFREQEEPSNK	3.85
IKRTIRVLDKNNQSFREQEEPSNK	4.35
IKRTIRVLDPNNQSFREQEEPSNK	3.21
IKRTIRVLDTNNQSFREQEEPSNK	4.23
IKRTIRVLDDNNQSFREQEEPSNK	4.83
IKRTIRVLDVNNQSAREQEEPSNK	4.27
IKRTIRVLDVNNQSSREQEEPSNK	4.3
IKRTIRVLDVNNQSDREQEEPSNK	4.86
IKRTIRVLDVNNQSPREQEEPSNK	4.67
IKRTIRVLDVNNQSQREQEEPSNK	4.29
IKRTIRVLDVNNQSLREQEEPSNK	3.4
IKRTIRVLDVNNQSEREQEEPSNK	4.79
IKRTIRVLDVNNQSCREQEEPSNK	4.18
IKRTIRVLDVNNQSMREQEEPSNK	3.98
IKRTIRVLDVNNQSKREQEEPSNK	4.02
IKRTIRVLDVNNQSHREQEEPSNK	4.44

Variant	protein stability index
IKRTIRVLDVNNQSNREQEEPSNK	3.82
IKRTIRVLDVNNQSTREQEEPSNK	4.09
IKRTIRVLDVNNQSVREQEEPSNK	3.79
IKRTIRVLDVNNQSRREQEEPSNK	4.79
IKRTIRVLDVNNQSIREQEEPSNK	3.96
IKRTIRVNDVNNQSFREQEEPSNK	4.57
IKRTIRVEDVNNQSFREQEEPSNK	5.07
IKRTIRVCDVNNQSFREQEEPSNK	4.93
IKRTIRVYDVNNQSFREQEEPSNK	3.96
IKRTIRVKDVNNQSFREQEEPSNK	4.46
IKRTIRVPDVNNQSFREQEEPSNK	4.93
IKRTIRVQDVNNQSFREQEEPSNK	4.41
IKRTIRVSDVNNQSFREQEEPSNK	4.44
IKRTIRVHDVNNQSFREQEEPSNK	4.93
IKRTIRVFDVNNQSFREQEEPSNK	3.83
IKRTIRVWDVNNQSFREQEEPSNK	3.39
IKRTIRVRDVNNQSFREQEEPSNK	4.68
IKRTIRVDDVNNQSFREQEEPSNK	4.92
IKRTIRVTDVNNQSFREQEEPSNK	4.72
IKRTIRVMDVNNQSFREQEEPSNK	3.75
IKRTIRVVDVNNQSFREQEEPSNK	3.94
IKRTIRVADVNNQSFREQEEPSNK	4.45
IKRTIRVIDVNNQSFREQEEPSNK	2.96
IKRTIRVGDVNNQSFREQEEPSNK	4.99

Variant	protein stability index
IKRTIRVLDVNQQSFREQEEPSNK	4.08
IKRTIRVLDVNAQSFREQEEPSNK	3.38
IKRTIRVLDVNGQSFREQEEPSNK	4.14
IKRTIRVLDVNCQSFREQEEPSNK	3.16
IKRTIRVLDVNPQSFREQEEPSNK	3.41
IKRTIRVLDVNKQSFREQEEPSNK	2.72
IKRTIRVLDVNWQSFREQEEPSNK	2.63
IKRTIRVLDVNMQSFREQEEPSNK	3.29
IKRTIRVLDVNIQSFREQEEPSNK	3.51
IKRTIRVLDVNHQSFREQEEPSNK	3.83
IKRTIRVLDVNVQSFREQEEPSNK	2.97
IKRTIRVLDVNEQSFREQEEPSNK	3.98
IKRTIRVLDVNYQSFREQEEPSNK	3.21
IKRTIRVLDVNRQSFREQEEPSNK	3.14
IKRTIRVLDVNDQSFREQEEPSNK	4.21
IKRTIRVLDVNSQSFREQEEPSNK	2.82
IKRTIRVLDVNTQSFREQEEPSNK	3.3
IKRTIRVLDVNLQSFREQEEPSNK	3.25
IKRTIRVLDVNFQSFREQEEPSNK	2.7
IKRTIAVLDVNNQSFREQEEPSNK	2.88
IKRTICVLDVNNQSFREQEEPSNK	3.35
IKRTIHVLDVNNQSFREQEEPSNK	4.45
